Source: patent US20220042033A1, “COMPOSITION AND METHOD FOR CONFERRING AND/OR ENHANCING TOLERANCE AGAINST HERBICIDES BY USING VARIANTS OF PPO” (FarmHannong Co., Ltd., priority 2017, published 2022)
Residue numbers refer to the chain shown, from its start. In names and notes the source's numbering stands.

B1: A170C + I311M + L332T + M365I: MxPPO (SEQ ID NO: 3) variant (protein)
chain: MHHMPRTTGMNVAVVGGGISGLAVAHHLRSRGTDAVLLESSARLGGAVGTHALAGYLVEQGPNSFLDREPATRALAAALNLEGRIRAADPAAKRRYVYTRGRLRSVPASPPAFLASDILPLGARLRVAGELFSRRAPEGVDESLAAFGRRHLGHRATQVLLDAVQTGIYCGDVEQLSVAATFPMLVKMEREHRSLILGAIRAQKAQRQAALPAGTAPKLSGALSTFDGGLQVLIDALAASLGDAAHVGARVEGLAREDGGWRLIIEEHGRRAELSVAQVVLAAPAHATAKLLRPLDDALAALVAGIAYAPMAVVHLGFDAGTLPAPDGFGFTVPAEEQRRMLGAIHASTTFPFRAEGGRVLYSCIVGGARQPGLVEQDEDALAALAREELKALAGVTARPSFTRVFRWPLGIPQYNLGHLERVAAIDAALQRLPGLHLIGNAYKGVGLNDCIRNAAQLADALVAGNTSHAP
modifications: Synthetic (Protoporphyrinogen IX oxidase (MxPPO) of Myxococcus xanthus)
B2: I168C + A170C + L332T + M365V: MxPPO (SEQ ID NO: 3) variant (protein)
chain: B1 chain with I168C, M311I, I365V
modifications: Synthetic (Protoporphyrinogen IX oxidase (MxPPO) of Myxococcus xanthus)
B3: R95A + A170C + L332T + M365I: MxPPO (SEQ ID NO: 3) variant (protein)
chain: B1 chain with R95A, M311I
modifications: Synthetic (Protoporphyrinogen IX oxidase (MxPPO) of Myxococcus xanthus)
B4: I168C + A170C + I311M + M365I: MxPPO (SEQ ID NO: 3) variant (protein)
chain: B1 chain with I168C, T332L
modifications: Synthetic (Protoporphyrinogen IX oxidase (MxPPO) of Myxococcus xanthus)
B5: I168C + I311M + M365I: MxPPO (SEQ ID NO: 3) variant (protein)
chain: B1 chain with I168C, C170A, T332L
modifications: Synthetic (Protoporphyrinogen IX oxidase (MxPPO) of Myxococcus xanthus)
B6: I168C + L332T + M365V: MxPPO (SEQ ID NO: 3) variant (protein)
chain: B1 chain with I168C, C170A, M311I, I365V
modifications: Synthetic (Protoporphyrinogen IX oxidase (MxPPO) of Myxococcus xanthus)
B7: I311M + L332T + M365V: MxPPO (SEQ ID NO: 3) variant (protein)
chain: B1 chain with C170A, I365V
modifications: Synthetic (Protoporphyrinogen IX oxidase (MxPPO) of Myxococcus xanthus)
B8: R95A + L332T + M365I: MxPPO (SEQ ID NO: 3) variant (protein)
chain: B1 chain with R95A, C170A, M311I
modifications: Synthetic (Protoporphyrinogen IX oxidase (MxPPO) of Myxococcus xanthus)
B9: I168C + M365V: MxPPO (SEQ ID NO: 3) variant (protein)
chain: B1 chain with I168C, C170A, M311I, T332L, I365V
modifications: Synthetic (Protoporphyrinogen IX oxidase (MxPPO) of Myxococcus xanthus)
B10: A170C + I311M + M365I: MxPPO (SEQ ID NO: 3) variant (protein)
chain: B1 chain with T332L
modifications: Synthetic (Protoporphyrinogen IX oxidase (MxPPO) of Myxococcus xanthus)
B11: I168C + M365I: MxPPO (SEQ ID NO: 3) variant (protein)
chain: B1 chain with I168C, C170A, M311I, T332L
modifications: Synthetic (Protoporphyrinogen IX oxidase (MxPPO) of Myxococcus xanthus)
B12: I168C + A170C + M365V: MxPPO (SEQ ID NO: 3) variant (protein)
chain: B1 chain with I168C, M311I, T332L, I365V
modifications: Synthetic (Protoporphyrinogen IX oxidase (MxPPO) of Myxococcus xanthus)

These molecules were tested on MxPPO (assay: Herbicide tolerance test of MxPPO wild type and variants in PPO-deficient E. coli BT3(ΔPPO), growth on herbicide-containing LB agar). Conditions: relative to MxPPO WT, dark, up to 1000 μM (FIGS. 21-22).
Assay type: cell-based, Myxococcus xanthus
Description: Then, the extent of tolerance was evaluated.

Molecule | Herbicide tolerance, flumioxazin
B1 | + (1-9 fold higher tolerance)
B2 | + (1-9 fold higher tolerance)
B3 | + (1-9 fold higher tolerance)
B4 | + (1-9 fold higher tolerance)

Same assay, conditions: relative to MxPPO WT, dark, up to 4000 μM (FIGS. 23-24)

Molecule | Herbicide tolerance, sulfentrazone
B2 | ++ (10-99 fold higher tolerance)
B3 | +++ (100-999 fold higher tolerance)
B4 | + (1-9 fold higher tolerance)

Same assay, conditions: relative to MxPPO WT, light, 2000 μM (FIG. 14)

Molecule | Herbicide tolerance, tiafenacil
B5 | + (1-9 fold higher tolerance)
B6 | + (1-9 fold higher tolerance)
B7 | + (1-9 fold higher tolerance)

Same assay, conditions: relative to MxPPO WT, light, up to 400 μM (FIGS. 15-17)

Molecule | Herbicide tolerance, flumioxazin
B8 | + (1-9 fold higher tolerance)
B9 | + (1-9 fold higher tolerance)
B10 | ++ (10-99 fold higher tolerance)
B5 | ++ (10-99 fold higher tolerance)
B11 | + (1-9 fold higher tolerance)
B6 | +++ (100-999 fold higher tolerance)
B7 | +++ (100-999 fold higher tolerance)
B12 | ++ (10-99 fold higher tolerance)

Same assay, conditions: relative to MxPPO WT, light, up to 1000 μM (FIGS. 18-20)

Molecule | Herbicide tolerance, sulfentrazone
B8 | + (1-9 fold higher tolerance)
B9 | + (1-9 fold higher tolerance)
B10 | + (1-9 fold higher tolerance)
B5 | + (1-9 fold higher tolerance)
B11 | + (1-9 fold higher tolerance)
B6 | ++ (10-99 fold higher tolerance)
B7 | ++ (10-99 fold higher tolerance)
B12 | ++ (10-99 fold higher tolerance)

These molecules were tested on MxPPO (assay: PPO enzyme activity of purified MBP-fused MxPPO wild type and variants). Conditions: PPO enzyme activity of purified MxPPO protein, relative to wild type.
Assay type: biochemical, Myxococcus xanthus
Description: Thus, PPO proteins of wild type and variants were expressed as fused to MBP and were used for experiments.
The following process for purification of PPO protein was performed in a 4° C. cold room. […] The column was washed with 3 column volumes of buffer and the presence of protein in the washing solution was examined. When the protein was no longer detected, the washing procedure was terminated. Then, the MBP-PPO protein was eluted with approximately 2 column volumes of buffer containing 20 mM maltose. The protein concentration of each eluent was determined and the elution was stopped when the protein was no longer detected. Ten microliter of each fraction was investigated for protein quantification and SDS-PAGE analysis. The highly pure fractions of PPO protein variants were used for the enzyme assay.
Since protoporphyrinogen IX, a substrate of PPO protein, was not commercially available, it was chemically synthesized in the laboratory. Overall process was performed in dark under nitrogen stream. […] of protoporphyrin IX was dissolved in 20 ml of 20% (v/v) EtOH, and stirred under dark condition for 30 minutes. The obtained protoporphyrin IX solution was put into a 15 ml screw tube in an amount of 800 μl, and flushed with nitrogen gas for 5 minutes. To this, 1.5 g of sodium amalgam was added and vigorously shaken for 2 minutes. The lid was opened to exhaust hydrogen gas in the tube. Thereafter, the lid was closed and incubated for 3 minutes. The protoporphyrinogen IX solution was filtered using syringe and cellulose membrane filter. To 600 μl of the obtained protoporphyrinogen IX solution, approximately 300 μl of 2M MOPS [3-(N-morpholino) propanesulfonic acid] was added to adjust pH to 8.0. To determine the enzyme activity of PPO protein, a reaction mixture was prepared with the following composition (based on 10 ml): 50 mM Tris-Cl (pH 8.0); 50 mM NaCl; 0.04% (v/v) Tween 20; 40 mM glucose (0.072 g); 5 units glucose oxidase (16.6 mg); and 10 units catalase (1 μl).
Hundred and eighty microliters of a reaction mixture […] were placed in 96 well plates and 20 μl of purified PPO proteins were added. After 50 μl of the mineral oil was layered, the reaction was initiated by adding the substrate, protoporphyrinogen IX solution, to a final concentration of 50 μM. The reaction proceeded at room temperature for 30 min and the fluorescence of protoporphyrin IX was measured using Microplate reader (Sense, Hidex) (excitation: 405 nm; emission: 633 nm). To calculate the PPO enzyme activity, the protoporphyrinogen IX solution was kept open in the air overnight to oxidize the solution. To this, 2.7 N HCl was added, and the absorbance at 408 nm was measured. A standard curve was generated using standard protoporphyrin IX, and PPO activity was measured by calibration of protoporphyrin IX using the standard curve of protoporphyrin IX.
Activities of variants were presented relatively compared to that of wild type.

Molecule | Activity (%)
B8 | 38%
B1 | 52%
B9 | 42%
B2 | 40%
B10 | 69%
B5 | 47%
B11 | 45%
B6 | 49%
B3 | 35%
B7 | 55%
B4 | 44%
B12 | 45%
